Measured values from the supplement of paper PMC9112550, “Optimization of the antimicrobial peptide Bac7 by deep mutational scanning” (BMC Biology, 2022).

System: Escherichia coli TOP10
Experiment: shrunken log2 fold change of peptide-encoding DNA abundance (4.5 h post-induction vs induction); higher = less antimicrobial activity (less host growth inhibition)
Settings: time post-induction: 4.5 h; library: site-saturation at positions 5, 18, 19, 20
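Also: peptides expressed intracellularly from a pBAD plasmid library in pooled LB shake-flask culture, induced with 0.3% L-arabinose, DNA abundance read by NGS, three biological replicates, DESeq2 with apeglm shrinkage.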

| Sequence | shrunken log2 fold change |
| --- | --- |
| RRIRVRPPRLPRPRPRPLTLPRP | -0.416 |
| RRIRVRPPRLPRPRPRPQSEPRP | -0.107 |
| RRIRIRPPRLPRPRPRPQQTPRP | -0.169 |
| RRIRWRPPRLPRPRPRPHSNPRP | -0.09 |
| RRIRARPPRLPRPRPRPTCLPRP | 0.0548 |
| RRIRLRPPRLPRPRPRPRWSPRP | 0.129 |
| RRIRKRPPRLPRPRPRPVAIPRP | 0.265 |
| RRIRDRPPRLPRPRPRPPDWPRP | 0.421 |
| RRIRGRPPRLPRPRPRPNCRPRP | 0.0979 |
| RRIRARPPRLPRPRPRPSRAPRP | 0.555 |
| RRIRARPPRLPRPRPRPHIFPRP | 0.141 |
| RRIRVRPPRLPRPRPRPIPMPRP | -0.094 |
| RRIRWRPPRLPRPRPRPMWMPRP | -0.195 |
| RRIRDRPPRLPRPRPRPEGVPRP | 0.166 |
| RRIRPRPPRLPRPRPRPRHPPRP | 0.357 |
| RRIRRRPPRLPRPRPRPWDDPRP | -0.0642 |
| RRIRPRPPRLPRPRPRPYILPRP | -0.588 |
| RRIRYRPPRLPRPRPRPHVVPRP | -0.261 |
| RRIRARPPRLPRPRPRPFPAPRP | 0.439 |
| RRIRYRPPRLPRPRPRPCPMPRP | -0.476 |
| RRIRDRPPRLPRPRPRPFQMPRP | -0.57 |
| RRIRKRPPRLPRPRPRPGDVPRP | 0.278 |
| RRIRCRPPRLPRPRPRPLDMPRP | -0.549 |
| RRIRVRPPRLPRPRPRPKGCPRP | 0.015 |
| RRIRWRPPRLPRPRPRPKFGPRP | 0.206 |

| Sequence | shrunken log2 fold change |
| --- | --- |
| RRIRGRPPRLPRPRPRPGCIPRP | 0.445 |
| RRIRQRPPRLPRPRPRPRTKPRP | 0.0706 |
| RRIRTRPPRLPRPRPRPPCTPRP | -0.0757 |
| RRIRRRPPRLPRPRPRPGIKPRP | -0.291 |
| RRIRNRPPRLPRPRPRPMRFPRP | -0.00968 |
| RRIRFRPPRLPRPRPRPQHNPRP | -0.781 |
| RRIRHRPPRLPRPRPRPGFGPRP | 0.384 |
| RRIRHRPPRLPRPRPRPLLQPRP | 0.112 |
| RRIRPRPPRLPRPRPRPPGLPRP | 0.268 |
| RRIRARPPRLPRPRPRPRQRPRP | 1.13 |
| RRIRVRPPRLPRPRPRPDTGPRP | -0.00804 |
| RRIRRRPPRLPRPRPRPIKYPRP | 0.0338 |
| RRIRIRPPRLPRPRPRPHRLPRP | -0.122 |
| RRIRARPPRLPRPRPRPCFKPRP | 0.0174 |
| RRIRHRPPRLPRPRPRPKDMPRP | -0.282 |
| RRIRERPPRLPRPRPRPYNPPRP | 0.00932 |
| RRIRFRPPRLPRPRPRPAQDPRP | 0.381 |
| RRIRIRPPRLPRPRPRPGTCPRP | -0.188 |
| RRIRYRPPRLPRPRPRPEIQPRP | 0.0356 |
| RRIRQRPPRLPRPRPRPLIDPRP | -0.206 |
| RRIRHRPPRLPRPRPRPCVVPRP | 0.000418 |
| RRIRCRPPRLPRPRPRPVGRPRP | 0.422 |
| RRIRIRPPRLPRPRPRPIPFPRP | -1.35 |
| RRIRYRPPRLPRPRPRPMTIPRP | -0.936 |
| RRIRARPPRLPRPRPRPGWGPRP | 0.463 |

| Sequence | shrunken log2 fold change |
| --- | --- |
| RRIRSRPPRLPRPRPRPACLPRP | 0.0251 |
| RRIRCRPPRLPRPRPRPYLNPRP | -1.32 |
| RRIRQRPPRLPRPRPRPVRPPRP | 0.162 |
| RRIRPRPPRLPRPRPRPCYCPRP | -0.722 |
| RRIRLRPPRLPRPRPRPYDQPRP | -0.562 |
| RRIRQRPPRLPRPRPRPPNEPRP | 0.266 |
| RRIRVRPPRLPRPRPRPLRHPRP | 0.288 |
| RRIRARPPRLPRPRPRPTFWPRP | 0.445 |
| RRIRHRPPRLPRPRPRPKHSPRP | -0.347 |
| RRIRARPPRLPRPRPRPACKPRP | 0.558 |
| RRIRLRPPRLPRPRPRPTIFPRP | 0.205 |
| RRIRSRPPRLPRPRPRPFQPPRP | -0.133 |
| RRIRPRPPRLPRPRPRPFCAPRP | 0.0563 |
| RRIRTRPPRLPRPRPRPTAAPRP | 0.211 |
| RRIRQRPPRLPRPRPRPEDSPRP | -0.0908 |
| RRIRDRPPRLPRPRPRPSWWPRP | 0.276 |
| RRIRMRPPRLPRPRPRPDMIPRP | -0.00213 |
| RRIRKRPPRLPRPRPRPWHCPRP | 0.0258 |
| RRIRSRPPRLPRPRPRPIWNPRP | -0.316 |
| RRIRGRPPRLPRPRPRPPSQPRP | 0.882 |
| RRIRLRPPRLPRPRPRPYCQPRP | -0.797 |
| RRIRWRPPRLPRPRPRPVFEPRP | 0.333 |
| RRIRWRPPRLPRPRPRPESIPRP | 0.2 |
| RRIRQRPPRLPRPRPRPTIQPRP | 0.0369 |
| RRIRPRPPRLPRPRPRPTMWPRP | 0.457 |

| Sequence | shrunken log2 fold change |
| --- | --- |
| RRIRFRPPRLPRPRPRPIISPRP | -0.332 |
| RRIRFRPPRLPRPRPRPESVPRP | 0.257 |
| RRIRKRPPRLPRPRPRPWNCPRP | 0.0387 |
| RRIRKRPPRLPRPRPRPVRKPRP | 0.0395 |
| RRIRFRPPRLPRPRPRPNHFPRP | -0.0292 |
| RRIRMRPPRLPRPRPRPMAVPRP | -0.00104 |
| RRIRCRPPRLPRPRPRPPMKPRP | 0.242 |
| RRIRGRPPRLPRPRPRPSYNPRP | 0.0742 |
| RRIRARPPRLPRPRPRPILHPRP | -0.0341 |
| RRIRTRPPRLPRPRPRPCCQPRP | 0.0313 |
| RRIRHRPPRLPRPRPRPVHGPRP | 0.131 |
| RRIRARPPRLPRPRPRPACLPRP | 0.347 |
| RRIRWRPPRLPRPRPRPEGCPRP | 1.22 |
| RRIRGRPPRLPRPRPRPVTLPRP | 0.149 |
| RRIRFRPPRLPRPRPRPQMDPRP | 0.0317 |
| RRIRWRPPRLPRPRPRPSPDPRP | 0.236 |
| RRIRTRPPRLPRPRPRPRFSPRP | -0.14 |
| RRIRTRPPRLPRPRPRPGGNPRP | -0.264 |
| RRIRERPPRLPRPRPRPRVTPRP | 0.107 |
| RRIRPRPPRLPRPRPRPNHKPRP | -0.385 |
| RRIRPRPPRLPRPRPRPSESPRP | 0.000106 |
| RRIRARPPRLPRPRPRPDYCPRP | -0.17 |
| RRIRERPPRLPRPRPRPHCVPRP | 0.038 |
| RRIRLRPPRLPRPRPRPCLCPRP | -0.0557 |
| RRIRKRPPRLPRPRPRPDMHPRP | 0.051 |

| Sequence | shrunken log2 fold change |
| --- | --- |
| RRIRKRPPRLPRPRPRPNTRPRP | -0.0607 |
| RRIRKRPPRLPRPRPRPRTQPRP | 0.605 |
| RRIRNRPPRLPRPRPRPDQQPRP | -0.0806 |
| RRIRSRPPRLPRPRPRPPIIPRP | -0.135 |
| RRIRIRPPRLPRPRPRPEMNPRP | -0.0353 |
| RRIRPRPPRLPRPRPRPQGDPRP | 0.243 |
| RRIRRRPPRLPRPRPRPRGEPRP | 0.739 |
| RRIRIRPPRLPRPRPRPTVYPRP | -0.177 |
| RRIRIRPPRLPRPRPRPVVQPRP | -1.04 |
| RRIRFRPPRLPRPRPRPGHCPRP | 0.0688 |
| RRIRIRPPRLPRPRPRPYQEPRP | 0.0173 |
| RRIRQRPPRLPRPRPRPHHRPRP | 0.104 |
| RRIRARPPRLPRPRPRPMDEPRP | 1.02 |
| RRIRIRPPRLPRPRPRPEPGPRP | 0.253 |
| RRIRNRPPRLPRPRPRPFSYPRP | -0.171 |
| RRIRFRPPRLPRPRPRPTINPRP | -0.508 |
| RRIRPRPPRLPRPRPRPDYGPRP | 0.014 |
| RRIRGRPPRLPRPRPRPFFWPRP | 0.499 |
| RRIRLRPPRLPRPRPRPNCIPRP | -0.603 |
| RRIRYRPPRLPRPRPRPYRAPRP | -0.0919 |
| RRIRERPPRLPRPRPRPSKAPRP | -0.129 |
| RRIRWRPPRLPRPRPRPNDNPRP | -0.425 |
| RRIRVRPPRLPRPRPRPFFLPRP | -0.294 |
| RRIRERPPRLPRPRPRPPNHPRP | -0.288 |
| RRIRKRPPRLPRPRPRPNLHPRP | -0.184 |
